# Measurements: patent US20250099534A1, “UBIQUITIN HIGH AFFINITY CYCLIC PEPTIDES AND METHODS OF USE THEREOF” (TECHNION RESEARCH & DEVELOPMENT FOUNDATION LIMITED, priority 2022, published 2025)
# Read-outs that look alike come from different tables or passages of the source. Starred links: 1 amine or outer side, 2 acyl side, 3 side chain; linkers in the order of their positions; H or OH if unused. Positions of bridges follow the written chain, without caps; N, C: chain ends. No end group written: not given here. *: point of attachment. mClBz = N-terminal group cyclised as a benzyl thioether to a Cys, O=C(c1cccc(C[*:3])c1)[*:2]; C6F5 = pentafluorophenyl group on the Cys sulfur, Fc1c(F)c(F)c(*)c(F)c1F
# Legend:
# [1] = biological target: Lys63-linked Ub chains (on proteins in cells and in U2OS lysate); experiment: cell-based or functional assay
# [2] = biological target: Lys63-linked Ub chains (on proteins in cells and in U2OS lysate); experiment: cell-based or functional assay; remark: listed apart in the source
"γ-H2AX level, western blot, HeLa cells [1] [fold]","γ-H2AX level, western blot, U2OS cells [1] [fold]","increase in the population of HeLa cells at G2/M phase, flow cytometry, 72 h [2] [%]","increase in the population of HeLa cells at G2/M phase, flow cytometry, 96 h [2] [%]","increase of overall Annexin V positive HeLa cells, 96 h [2] [%]","relative tail moment, comet assay, U2OS cells [2] [fold]","γ-H2AX level, western blot, HeLa cells [2] [fold]","γ-H2AX level, western blot, U2OS cells [2] [fold]",Binder
2.4,1.8,–,–,–,–,–,–,"mClBz-C(C6F5)LIWIGSSKNPYILCG (thioether N-15) [cyclic peptide 20, CP1-L1C-C6F5]"
–,–,5.2,13,14.5,8,3.5,3,"mClBz-CLIWIGSSKNPYILCG (bridge N-15; not fully specified (C-terminus, bridges)) [cyclic peptide 2 (CP1-L1C)]"
